Key:
[1] = target: human recombinant adrenomedullin receptor (CRLR+RAMP3) (human)
[2] = target: human recombinant adrenomedullin receptor (CRLR+RAMP3) (human); remark: listed apart in the source

## human ADM 22-52 (from UniProt P35318) (peptide)
[1]
  IC50 (read off the curve), inhibition of cAMP stimulation by 5.63 nM hADM: 0.2 µM
[2]
  IC50 (read off the curve), inhibition of cAMP stimulation by 0.67 nM mADM: 2 µM

Source: patent publication US12662530
